Measurements from US7572589B2, “Diagnosis and treatment of infectious diseases through indel-differentiated proteins” (priority 2001, dated 2009).

Legend:
[1] = system: Macrophages infected with L. donovani; conditions: cells incubated with inhibitor prior to infection; cited from earlier work
[2] = target: T1, SHP-1 (Homo sapiens, UniProt P29350); conditions: cited from earlier work
T1 construct: made in house

[3] = target: T1, SHP-1; assay: Binding assay of purified EF-1α with GST-SHP-1 glutathione beads, immunoblot; conditions: purified proteins, glutathione-sepharose beads
Procedure: (§1) For binding assays, purified EF-1α from either leishmania or macrophages was incubated with 25 μl (packed volume) of glutathione-agarose beads containing equal amounts of GST-SHP-1. Binding was accomplished by mixing in 100 μl of binding buffer (50 mM HEPES [pH 7.5], 0.15 M NaCl, 1 mM EDTA, 1 mM DTT, 0.01% Triton X-100™ and 1% glycerol) for 2 h at 4° C. The beads were collected by centrifugation and washed four times with binding buffer. Bound EF-1α was eluted by boiling beads in Laemmli sample buffer, separated on SDS-PAGE followed by immunoblotting using anti-EF-1α. Binding of EF-1α to calmodulin-agarose was performed essentially as described above for GST-SHP-1 except that binding buffer contained 0.2 mM CaCl2 instead of EDTA. Also, after incubation, non-bound proteins were removed and affinity beads were assayed for SHP-1 phosphatase activity using pNPP as a substrate. Relative phosphatase activity was assessed by measuring changes in absorbance at 405 nm.

[4] = target: T2, calmodulin (Homo sapiens, UniProt P0DP23); assay: Binding of purified EF-1α to calmodulin-agarose; conditions: purified proteins
T2 construct: purchased Sigma Chemical Co. (St. Louis, Mo.)
Procedure: as §1

[5] = target: T3, SHP-1 (Mus musculus, UniProt P29351); assay: SHP-1 phosphatase activity (pNPP) after Profect-1 delivery of purified EF-1α into macrophages; assay type: cell-based, murine; conditions: purified protein introduced into macrophages
T3 construct: complexes for delivery to macrophages (approximately 2×10^6); endogenous in cells; host or cells: macrophages (RAW 264.7 named in the materials)
Procedure: Approximately 1 μg of purified EF-1α from leishmania or macrophages or an equivalent amount of BSA were incubated separately with Profect 1™ reagent (Targety Systems, Santee, Calif., USA) in serum free media to prepare protein-Profect-1™ complexes for delivery to macrophages (approximately 2×10^6) according to the manufacturer's instructions. After 2-3 hr of incubation, cells were lysed in buffer C (50 mM Tris [pH 7.5], 1% Triton X-100™ and 0.15M NaCl) containing a cocktail of protease inhibitors for 20 min on ice and incubated with anti-SHP-1 for 2 h end-over-end at 4° C. Immune complexes were recovered using protein A-sepharose and after extensive washing with buffer C, immune complexes were assayed for phosphatase activity using pNPP as a substrate.

T1 sequence (P29350 whole entry): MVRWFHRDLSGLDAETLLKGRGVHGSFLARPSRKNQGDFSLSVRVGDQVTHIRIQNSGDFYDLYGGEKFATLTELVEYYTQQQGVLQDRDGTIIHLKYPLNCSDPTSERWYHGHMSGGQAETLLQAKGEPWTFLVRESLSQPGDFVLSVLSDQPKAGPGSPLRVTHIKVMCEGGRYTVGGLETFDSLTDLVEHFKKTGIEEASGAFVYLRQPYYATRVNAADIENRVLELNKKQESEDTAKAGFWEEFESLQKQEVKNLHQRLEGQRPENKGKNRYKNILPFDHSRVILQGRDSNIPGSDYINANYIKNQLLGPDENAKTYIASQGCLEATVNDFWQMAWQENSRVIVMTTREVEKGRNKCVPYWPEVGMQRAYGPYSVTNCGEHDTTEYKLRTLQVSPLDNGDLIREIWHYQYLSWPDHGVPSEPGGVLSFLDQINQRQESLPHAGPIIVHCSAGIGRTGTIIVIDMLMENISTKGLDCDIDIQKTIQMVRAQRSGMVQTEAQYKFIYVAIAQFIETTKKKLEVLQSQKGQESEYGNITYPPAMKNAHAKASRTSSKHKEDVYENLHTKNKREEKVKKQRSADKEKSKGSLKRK
T3 sequence (P29351 whole entry): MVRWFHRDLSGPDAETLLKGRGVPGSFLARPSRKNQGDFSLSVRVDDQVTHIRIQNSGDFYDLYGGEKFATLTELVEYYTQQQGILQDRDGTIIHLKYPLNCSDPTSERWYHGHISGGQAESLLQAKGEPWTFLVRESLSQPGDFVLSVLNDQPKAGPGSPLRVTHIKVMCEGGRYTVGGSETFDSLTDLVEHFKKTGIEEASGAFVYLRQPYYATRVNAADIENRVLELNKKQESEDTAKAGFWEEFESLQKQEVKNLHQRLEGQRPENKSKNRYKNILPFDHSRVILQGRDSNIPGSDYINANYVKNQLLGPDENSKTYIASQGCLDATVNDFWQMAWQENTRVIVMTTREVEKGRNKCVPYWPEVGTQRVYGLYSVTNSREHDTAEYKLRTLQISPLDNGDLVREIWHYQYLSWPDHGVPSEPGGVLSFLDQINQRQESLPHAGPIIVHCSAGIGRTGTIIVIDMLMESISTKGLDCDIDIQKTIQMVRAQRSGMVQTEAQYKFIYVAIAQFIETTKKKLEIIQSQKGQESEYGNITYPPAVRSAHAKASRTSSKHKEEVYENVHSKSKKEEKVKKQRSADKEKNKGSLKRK

sodium orthovandate
phenotype of impaired cell signaling and cell deactivation [1]: reversed

O.O.O.O.O.O.O.O.O.O=C([O-])[C@@H]1[O][Sb]2([O-])([O][Sb]34([OH])[O][C@H]([C@H](O)CO)[C@H]([O]3)[C@H](C(=O)[O-])[O]4)[O][C@H]([C@H](O)CO)[C@@H]1[O]2.[Na+].[Na+].[Na+] [sodium stibogluconate]
inhibition of SHP-1 [2]: inhibitor of SHP-1

B1: macrophage EF-1α: EF-1α purified to near homogeneity from murine macrophages (RAW 264.7) (protein)
chain: GKEKTHINIVVIGHVDSGKSTTTGHLIYKCGGIDKRTIEKFEKEAAEMGKGSFKYAWVLDKLKAERERGITIDISLWKFETSKYYVTIIDAPGHRDFIKNMITGTSQADCAVLIVAAGVGEFEAGISKNGQTREHALLAYTLGVKQLIVGVNKMDSTEPPYSQKRYEEIVKEVSTYIKKIGYNPDTVAFVPISGWNGDNMLEPSANMPWFKGWKVTRKDGSASGTTLLEALDCILPPTRPTDKPLRLPLQDVYKIGGIGTVPVGRVETGVLKPGMVVTFAPVNVTTEVKSVEMHHEALSEALPGDNVGFNVKNVSVKDVRRGNVAGDSKNDPPMEAAGFTAQVIILNHPGQISAGYAPVLDCHTAHIACKFAELKEKIDRRSGKKLEDGPKFLKSGDAAIVDMVPGKPMCVESFSDYPPLGRFAVRDMRQTVAVGVIKAVDKKAAGAGKVTKSAQKAQKAK
binding to GST-SHP-1 [3]: comparatively little binding
binding to calmodulin [4]: bound directly and with similar affinities
activation of SHP-1 [5]: activation of SHP-1 was not observed
